Values quoted from earlier work in US20110171162A1, “POLYMER CONJUGATES OF THYMOSIN ALPHA 1 PEPTIDES” (NEKTAR THERAPEUTICS, priority 2008, published 2011).

Settings: in human plasma

Which half-life does the source give for “thymosin alpha 1: Twenty-eight amino acid peptide, SEQ ID NO: 1 (SDAAVDTSSEITTKDLKEKKEVVEEAEN); sold as ZADAXIN thymosin alpha 1, injection (thymalfasin) (listed as Homo sapiens)” here?
The half-life was “approximately two”.
